This experiment addresses NY-ESO-1 peptide on HLA-A*02:01 (human). In words: data from [38–40].

The term Kd denotes the free concentration of one partner at which half of the binding sites on the other are occupied at equilibrium, for simple one-to-one binding. As for 1G4, the Kd is 10 µM.

Source of the values: doi:10.1101/2024.06.27.600973.
